Drawing on patent US20180155451A1 (published 2018), this text covers Ho/Con_1a for 16 molecules.

First the molecules themselves.
B1: GpH7-B3 variant A330_16H/GpL16-k0 (antibody, human IgG1, kappa)
heavy: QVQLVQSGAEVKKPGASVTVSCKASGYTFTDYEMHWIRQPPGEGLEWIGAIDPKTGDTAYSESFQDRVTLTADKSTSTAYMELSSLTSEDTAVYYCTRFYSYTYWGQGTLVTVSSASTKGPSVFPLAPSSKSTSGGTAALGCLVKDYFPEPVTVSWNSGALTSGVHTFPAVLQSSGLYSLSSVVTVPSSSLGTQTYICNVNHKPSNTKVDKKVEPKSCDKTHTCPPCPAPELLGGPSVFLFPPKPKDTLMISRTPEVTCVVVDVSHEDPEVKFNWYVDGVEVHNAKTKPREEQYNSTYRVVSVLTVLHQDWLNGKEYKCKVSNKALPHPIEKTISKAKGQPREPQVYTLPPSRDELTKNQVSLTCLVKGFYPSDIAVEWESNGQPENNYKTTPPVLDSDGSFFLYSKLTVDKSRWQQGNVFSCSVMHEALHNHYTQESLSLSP
light: DIVMTQSPLSLPVTPGEPASISCQASESLVHSNRNTYLHWYLQKPGQSPQLLIYKVSNRFSGVPDRFSGSGSGTDFTLKISRVEAEDVGVYYCSQNTHVPPTFGQGTKVEIERTVAAPSVFIFPPSDEQLKSGTASVVCLLNNFYPREAKVQWKVDNALQSGNSQESVTEQDSKDSTYSLSSTLTLSKADYEKHKVYACEVTHQGLSSPVTKSFNRGEC
notes: homodimerized; also called Ho Ab A330_16H
B2: GpH7-B3 variant E269_20W/GpL16-k0 (antibody, human IgG1, kappa)
heavy: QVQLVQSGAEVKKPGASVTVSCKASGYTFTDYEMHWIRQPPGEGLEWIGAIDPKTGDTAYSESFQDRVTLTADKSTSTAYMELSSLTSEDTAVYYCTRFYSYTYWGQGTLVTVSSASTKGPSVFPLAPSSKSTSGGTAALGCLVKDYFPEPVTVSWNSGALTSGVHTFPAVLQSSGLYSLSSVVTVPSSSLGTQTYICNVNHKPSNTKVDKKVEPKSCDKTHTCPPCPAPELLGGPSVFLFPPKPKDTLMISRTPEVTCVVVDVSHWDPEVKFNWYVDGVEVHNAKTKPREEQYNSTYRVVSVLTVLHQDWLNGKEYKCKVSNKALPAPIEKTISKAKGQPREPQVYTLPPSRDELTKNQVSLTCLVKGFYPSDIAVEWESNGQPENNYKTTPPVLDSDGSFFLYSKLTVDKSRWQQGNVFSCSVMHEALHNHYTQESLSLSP
light: DIVMTQSPLSLPVTPGEPASISCQASESLVHSNRNTYLHWYLQKPGQSPQLLIYKVSNRFSGVPDRFSGSGSGTDFTLKISRVEAEDVGVYYCSQNTHVPPTFGQGTKVEIERTVAAPSVFIFPPSDEQLKSGTASVVCLLNNFYPREAKVQWKVDNALQSGNSQESVTEQDSKDSTYSLSSTLTLSKADYEKHKVYACEVTHQGLSSPVTKSFNRGEC
notes: homodimerized; also called Ho Ab E269_20W
B3: GpH7-B3 variant E269_15Y/GpL16-k0 (antibody, human IgG1, kappa)
heavy: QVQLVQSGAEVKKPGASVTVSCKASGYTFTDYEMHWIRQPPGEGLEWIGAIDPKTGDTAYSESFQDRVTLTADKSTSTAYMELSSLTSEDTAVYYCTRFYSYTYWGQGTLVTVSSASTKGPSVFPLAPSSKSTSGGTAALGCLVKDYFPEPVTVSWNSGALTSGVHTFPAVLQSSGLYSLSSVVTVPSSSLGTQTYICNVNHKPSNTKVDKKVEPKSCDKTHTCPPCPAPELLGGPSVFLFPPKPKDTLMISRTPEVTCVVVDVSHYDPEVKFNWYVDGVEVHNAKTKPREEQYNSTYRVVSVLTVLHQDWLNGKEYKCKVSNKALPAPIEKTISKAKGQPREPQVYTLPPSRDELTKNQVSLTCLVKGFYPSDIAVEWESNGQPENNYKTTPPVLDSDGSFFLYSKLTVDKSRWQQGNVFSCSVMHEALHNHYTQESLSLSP
light: DIVMTQSPLSLPVTPGEPASISCQASESLVHSNRNTYLHWYLQKPGQSPQLLIYKVSNRFSGVPDRFSGSGSGTDFTLKISRVEAEDVGVYYCSQNTHVPPTFGQGTKVEIERTVAAPSVFIFPPSDEQLKSGTASVVCLLNNFYPREAKVQWKVDNALQSGNSQESVTEQDSKDSTYSLSSTLTLSKADYEKHKVYACEVTHQGLSSPVTKSFNRGEC
notes: homodimerized; also called Ho Ab E269_15Y
B4: GpH7-B3 variant E269_03V/GpL16-k0 (antibody, human IgG1, kappa)
heavy: not shown
light: DIVMTQSPLSLPVTPGEPASISCQASESLVHSNRNTYLHWYLQKPGQSPQLLIYKVSNRFSGVPDRFSGSGSGTDFTLKISRVEAEDVGVYYCSQNTHVPPTFGQGTKVEIERTVAAPSVFIFPPSDEQLKSGTASVVCLLNNFYPREAKVQWKVDNALQSGNSQESVTEQDSKDSTYSLSSTLTLSKADYEKHKVYACEVTHQGLSSPVTKSFNRGEC
notes: homodimerized; also called Ho Ab E269_03V
B5: GpH7-B3 variant E269_06M/GpL16-k0 (antibody, human IgG1, kappa)
heavy: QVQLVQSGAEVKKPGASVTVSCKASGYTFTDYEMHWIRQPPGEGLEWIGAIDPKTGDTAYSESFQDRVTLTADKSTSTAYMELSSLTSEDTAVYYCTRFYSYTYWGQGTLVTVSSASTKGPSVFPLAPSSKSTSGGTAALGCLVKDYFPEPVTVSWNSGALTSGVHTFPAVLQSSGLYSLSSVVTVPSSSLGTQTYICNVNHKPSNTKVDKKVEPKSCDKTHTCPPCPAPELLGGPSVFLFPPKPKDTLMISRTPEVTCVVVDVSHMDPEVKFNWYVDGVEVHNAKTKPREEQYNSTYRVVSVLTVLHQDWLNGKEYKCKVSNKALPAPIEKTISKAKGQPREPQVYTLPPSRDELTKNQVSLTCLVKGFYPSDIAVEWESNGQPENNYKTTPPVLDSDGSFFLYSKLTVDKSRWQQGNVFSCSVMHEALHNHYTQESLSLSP
light: DIVMTQSPLSLPVTPGEPASISCQASESLVHSNRNTYLHWYLQKPGQSPQLLIYKVSNRFSGVPDRFSGSGSGTDFTLKISRVEAEDVGVYYCSQNTHVPPTFGQGTKVEIERTVAAPSVFIFPPSDEQLKSGTASVVCLLNNFYPREAKVQWKVDNALQSGNSQESVTEQDSKDSTYSLSSTLTLSKADYEKHKVYACEVTHQGLSSPVTKSFNRGEC
notes: homodimerized; also called Ho Ab E269_06M
B6: GpH7-B3 variant E269_08L/GpL16-k0 (antibody, human IgG1, kappa)
heavy: not shown
light: DIVMTQSPLSLPVTPGEPASISCQASESLVHSNRNTYLHWYLQKPGQSPQLLIYKVSNRFSGVPDRFSGSGSGTDFTLKISRVEAEDVGVYYCSQNTHVPPTFGQGTKVEIERTVAAPSVFIFPPSDEQLKSGTASVVCLLNNFYPREAKVQWKVDNALQSGNSQESVTEQDSKDSTYSLSSTLTLSKADYEKHKVYACEVTHQGLSSPVTKSFNRGEC
notes: homodimerized; also called Ho Ab E269_08L
B7: GpH7-B3 variant E269_18N/GpL16-k0 (antibody, human IgG1, kappa)
heavy: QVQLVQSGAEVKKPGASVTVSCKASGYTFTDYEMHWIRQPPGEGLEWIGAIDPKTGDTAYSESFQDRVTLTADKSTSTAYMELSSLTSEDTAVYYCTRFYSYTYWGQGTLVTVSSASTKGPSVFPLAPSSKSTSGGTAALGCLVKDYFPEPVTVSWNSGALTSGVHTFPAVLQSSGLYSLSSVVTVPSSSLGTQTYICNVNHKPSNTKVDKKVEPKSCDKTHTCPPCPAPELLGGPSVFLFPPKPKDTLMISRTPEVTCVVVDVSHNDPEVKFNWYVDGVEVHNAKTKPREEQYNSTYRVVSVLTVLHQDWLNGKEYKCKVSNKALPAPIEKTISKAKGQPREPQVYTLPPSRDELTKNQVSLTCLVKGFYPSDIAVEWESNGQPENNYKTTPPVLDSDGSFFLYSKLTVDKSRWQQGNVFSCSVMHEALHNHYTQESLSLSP
light: DIVMTQSPLSLPVTPGEPASISCQASESLVHSNRNTYLHWYLQKPGQSPQLLIYKVSNRFSGVPDRFSGSGSGTDFTLKISRVEAEDVGVYYCSQNTHVPPTFGQGTKVEIERTVAAPSVFIFPPSDEQLKSGTASVVCLLNNFYPREAKVQWKVDNALQSGNSQESVTEQDSKDSTYSLSSTLTLSKADYEKHKVYACEVTHQGLSSPVTKSFNRGEC
notes: homodimerized; also called Ho Ab E269_18N
B8: GpH7-B3 variant E269_19Q/GpL16-k0 (antibody, human IgG1, kappa)
heavy: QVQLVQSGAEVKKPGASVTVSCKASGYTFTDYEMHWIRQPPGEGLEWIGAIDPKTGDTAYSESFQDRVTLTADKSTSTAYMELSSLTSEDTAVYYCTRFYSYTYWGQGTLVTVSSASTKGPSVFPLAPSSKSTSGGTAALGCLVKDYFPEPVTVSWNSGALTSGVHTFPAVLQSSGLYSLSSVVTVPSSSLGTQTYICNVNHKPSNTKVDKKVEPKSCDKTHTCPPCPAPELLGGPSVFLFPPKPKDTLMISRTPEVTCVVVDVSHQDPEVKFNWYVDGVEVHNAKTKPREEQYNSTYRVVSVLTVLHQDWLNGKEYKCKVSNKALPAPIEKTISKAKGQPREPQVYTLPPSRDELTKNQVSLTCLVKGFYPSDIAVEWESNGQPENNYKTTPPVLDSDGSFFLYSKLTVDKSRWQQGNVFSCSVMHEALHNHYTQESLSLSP
light: DIVMTQSPLSLPVTPGEPASISCQASESLVHSNRNTYLHWYLQKPGQSPQLLIYKVSNRFSGVPDRFSGSGSGTDFTLKISRVEAEDVGVYYCSQNTHVPPTFGQGTKVEIERTVAAPSVFIFPPSDEQLKSGTASVVCLLNNFYPREAKVQWKVDNALQSGNSQESVTEQDSKDSTYSLSSTLTLSKADYEKHKVYACEVTHQGLSSPVTKSFNRGEC
notes: homodimerized; also called Ho Ab E269_19Q
B9: GpH7-B3 variant E269_09D/GpL16-k0 (antibody, human IgG1, kappa)
heavy: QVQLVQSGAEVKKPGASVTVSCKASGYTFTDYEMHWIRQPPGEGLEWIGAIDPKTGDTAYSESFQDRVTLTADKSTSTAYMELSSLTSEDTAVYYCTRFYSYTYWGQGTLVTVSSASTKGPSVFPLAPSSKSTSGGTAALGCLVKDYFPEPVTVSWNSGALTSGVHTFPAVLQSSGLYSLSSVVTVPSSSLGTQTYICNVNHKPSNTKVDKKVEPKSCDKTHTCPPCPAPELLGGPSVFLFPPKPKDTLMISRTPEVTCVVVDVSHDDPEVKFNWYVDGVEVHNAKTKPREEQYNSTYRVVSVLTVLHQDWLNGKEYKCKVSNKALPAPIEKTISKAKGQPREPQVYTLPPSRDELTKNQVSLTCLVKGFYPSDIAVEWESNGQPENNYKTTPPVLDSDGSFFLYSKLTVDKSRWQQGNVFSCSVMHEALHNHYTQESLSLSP
light: DIVMTQSPLSLPVTPGEPASISCQASESLVHSNRNTYLHWYLQKPGQSPQLLIYKVSNRFSGVPDRFSGSGSGTDFTLKISRVEAEDVGVYYCSQNTHVPPTFGQGTKVEIERTVAAPSVFIFPPSDEQLKSGTASVVCLLNNFYPREAKVQWKVDNALQSGNSQESVTEQDSKDSTYSLSSTLTLSKADYEKHKVYACEVTHQGLSSPVTKSFNRGEC
notes: homodimerized; also called Ho Ab E269_09D
B10: GpH7-B3 variant E269_02A/GpL16-k0 (antibody, human IgG1, kappa)
heavy: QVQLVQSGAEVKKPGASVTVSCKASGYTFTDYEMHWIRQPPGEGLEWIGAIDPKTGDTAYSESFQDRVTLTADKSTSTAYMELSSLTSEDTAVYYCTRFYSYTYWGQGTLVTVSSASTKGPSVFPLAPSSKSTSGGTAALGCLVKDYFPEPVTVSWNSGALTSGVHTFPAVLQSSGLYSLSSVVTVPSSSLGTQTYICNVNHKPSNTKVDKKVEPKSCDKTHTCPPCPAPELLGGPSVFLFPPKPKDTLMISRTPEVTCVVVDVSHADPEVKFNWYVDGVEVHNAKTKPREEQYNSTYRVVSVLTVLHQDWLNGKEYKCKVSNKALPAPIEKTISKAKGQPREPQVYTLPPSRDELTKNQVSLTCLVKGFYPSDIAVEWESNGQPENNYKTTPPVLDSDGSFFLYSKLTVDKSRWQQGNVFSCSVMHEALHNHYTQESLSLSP
light: DIVMTQSPLSLPVTPGEPASISCQASESLVHSNRNTYLHWYLQKPGQSPQLLIYKVSNRFSGVPDRFSGSGSGTDFTLKISRVEAEDVGVYYCSQNTHVPPTFGQGTKVEIERTVAAPSVFIFPPSDEQLKSGTASVVCLLNNFYPREAKVQWKVDNALQSGNSQESVTEQDSKDSTYSLSSTLTLSKADYEKHKVYACEVTHQGLSSPVTKSFNRGEC
notes: homodimerized; also called Ho Ab E269_02A
B11: GpH7-B3 variant E269_16H/GpL16-k0 (antibody, human IgG1, kappa)
heavy: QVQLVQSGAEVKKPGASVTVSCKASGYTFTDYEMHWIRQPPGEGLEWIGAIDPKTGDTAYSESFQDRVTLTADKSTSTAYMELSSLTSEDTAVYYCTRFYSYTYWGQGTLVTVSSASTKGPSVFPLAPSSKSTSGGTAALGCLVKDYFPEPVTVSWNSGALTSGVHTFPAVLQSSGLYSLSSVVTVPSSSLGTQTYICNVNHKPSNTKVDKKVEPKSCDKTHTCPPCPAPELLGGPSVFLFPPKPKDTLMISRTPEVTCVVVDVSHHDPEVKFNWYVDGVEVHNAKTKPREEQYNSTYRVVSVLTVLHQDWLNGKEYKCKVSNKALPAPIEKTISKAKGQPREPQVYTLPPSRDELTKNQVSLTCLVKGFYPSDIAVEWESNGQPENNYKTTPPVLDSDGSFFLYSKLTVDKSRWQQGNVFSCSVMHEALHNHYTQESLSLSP
light: DIVMTQSPLSLPVTPGEPASISCQASESLVHSNRNTYLHWYLQKPGQSPQLLIYKVSNRFSGVPDRFSGSGSGTDFTLKISRVEAEDVGVYYCSQNTHVPPTFGQGTKVEIERTVAAPSVFIFPPSDEQLKSGTASVVCLLNNFYPREAKVQWKVDNALQSGNSQESVTEQDSKDSTYSLSSTLTLSKADYEKHKVYACEVTHQGLSSPVTKSFNRGEC
notes: homodimerized; also called Ho Ab E269_16H
B12: GpH7-B3 variant E269_05P/GpL16-k0 (antibody, human IgG1, kappa)
heavy: not shown
light: DIVMTQSPLSLPVTPGEPASISCQASESLVHSNRNTYLHWYLQKPGQSPQLLIYKVSNRFSGVPDRFSGSGSGTDFTLKISRVEAEDVGVYYCSQNTHVPPTFGQGTKVEIERTVAAPSVFIFPPSDEQLKSGTASVVCLLNNFYPREAKVQWKVDNALQSGNSQESVTEQDSKDSTYSLSSTLTLSKADYEKHKVYACEVTHQGLSSPVTKSFNRGEC
notes: homodimerized; also called Ho Ab E269_05P
B13: GpH7-B3 variant E269_14T/GpL16-k0 (antibody, human IgG1, kappa)
heavy: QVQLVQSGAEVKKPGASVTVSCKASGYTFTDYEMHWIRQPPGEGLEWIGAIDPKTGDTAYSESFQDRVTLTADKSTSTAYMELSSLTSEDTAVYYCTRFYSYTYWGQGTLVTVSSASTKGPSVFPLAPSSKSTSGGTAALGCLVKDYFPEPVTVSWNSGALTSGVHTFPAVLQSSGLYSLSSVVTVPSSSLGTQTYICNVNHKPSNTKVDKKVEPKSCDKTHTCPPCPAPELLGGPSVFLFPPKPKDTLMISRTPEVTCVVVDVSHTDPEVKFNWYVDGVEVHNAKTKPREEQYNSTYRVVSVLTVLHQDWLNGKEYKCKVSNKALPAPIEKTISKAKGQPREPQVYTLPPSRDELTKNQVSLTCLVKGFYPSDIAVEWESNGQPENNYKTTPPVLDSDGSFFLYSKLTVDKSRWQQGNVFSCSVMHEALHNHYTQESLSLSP
light: DIVMTQSPLSLPVTPGEPASISCQASESLVHSNRNTYLHWYLQKPGQSPQLLIYKVSNRFSGVPDRFSGSGSGTDFTLKISRVEAEDVGVYYCSQNTHVPPTFGQGTKVEIERTVAAPSVFIFPPSDEQLKSGTASVVCLLNNFYPREAKVQWKVDNALQSGNSQESVTEQDSKDSTYSLSSTLTLSKADYEKHKVYACEVTHQGLSSPVTKSFNRGEC
notes: homodimerized; also called Ho Ab E269_14T
B14: GpH7-B3 variant E269_07I/GpL16-k0 (antibody, human IgG1, kappa)
heavy: not shown
light: DIVMTQSPLSLPVTPGEPASISCQASESLVHSNRNTYLHWYLQKPGQSPQLLIYKVSNRFSGVPDRFSGSGSGTDFTLKISRVEAEDVGVYYCSQNTHVPPTFGQGTKVEIERTVAAPSVFIFPPSDEQLKSGTASVVCLLNNFYPREAKVQWKVDNALQSGNSQESVTEQDSKDSTYSLSSTLTLSKADYEKHKVYACEVTHQGLSSPVTKSFNRGEC
notes: homodimerized; also called Ho Ab E269_07I
B15: GpH7-B3 variant E269_13S/GpL16-k0 (antibody, human IgG1, kappa)
heavy: not shown
light: DIVMTQSPLSLPVTPGEPASISCQASESLVHSNRNTYLHWYLQKPGQSPQLLIYKVSNRFSGVPDRFSGSGSGTDFTLKISRVEAEDVGVYYCSQNTHVPPTFGQGTKVEIERTVAAPSVFIFPPSDEQLKSGTASVVCLLNNFYPREAKVQWKVDNALQSGNSQESVTEQDSKDSTYSLSSTLTLSKADYEKHKVYACEVTHQGLSSPVTKSFNRGEC
notes: homodimerized; also called Ho Ab E269_13S
B16: GpH7-B3 variant E269_01G/GpL16-k0 (antibody, human IgG1, kappa)
heavy: not shown
light: DIVMTQSPLSLPVTPGEPASISCQASESLVHSNRNTYLHWYLQKPGQSPQLLIYKVSNRFSGVPDRFSGSGSGTDFTLKISRVEAEDVGVYYCSQNTHVPPTFGQGTKVEIERTVAAPSVFIFPPSDEQLKSGTASVVCLLNNFYPREAKVQWKVDNALQSGNSQESVTEQDSKDSTYSLSSTLTLSKADYEKHKVYACEVTHQGLSSPVTKSFNRGEC
notes: homodimerized; also called Ho Ab E269_01G

T1 sequence (P12314 16-292): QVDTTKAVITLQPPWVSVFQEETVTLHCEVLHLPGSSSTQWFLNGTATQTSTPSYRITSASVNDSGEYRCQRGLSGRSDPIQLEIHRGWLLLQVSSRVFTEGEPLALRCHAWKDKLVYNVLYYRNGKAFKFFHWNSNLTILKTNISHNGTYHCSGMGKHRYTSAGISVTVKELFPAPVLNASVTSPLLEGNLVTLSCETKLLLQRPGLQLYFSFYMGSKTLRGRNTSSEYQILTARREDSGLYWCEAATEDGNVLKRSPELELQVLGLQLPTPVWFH

The assay has as its target T1, FcγRIa (human, UniProt P12314 16-292).
T1 construct: extracellular domain; also called FcgRI; CD64
Kind of assay: SPR; vs GpH7-B3/GpL16-k0=100.
Regarding B1, the Ho/Con_1a is 104 % of control.
B2: the Ho/Con_1a is 98.9 % of control.
Regarding B3, the Ho/Con_1a is 100 % of control.
As for B4, the Ho/Con_1a was 95.4 % of control.
The figure for B5 is 101 % of control; for B6 it is 101 % of control.
Take B7: the Ho/Con_1a was 92.7 % of control.
The result for B8 reads 99.6 % of control.
The figure for B9 is 106 % of control.
B10: the Ho/Con_1a is 96.2 % of control.
On to B11, for which the Ho/Con_1a was 98.4 % of control.
For the molecule B12, the Ho/Con_1a was 95.7 % of control.
The figure for B13 is 96.2 % of control; for B14 it is 97.1 % of control; for B15 it is 95.9 % of control.
The figure for B16 is 97.4 % of control.
